The values below come from the nanobody polyreactivity screen of Harvey et al. (2022).

A short description of this series: yeast display, Sf9 membrane polyspecificity reagent, FACS + sequencing; frameworks hold sequencing errors. The gist of the method:
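Sorting gates, low and high (top ~1%), were placed on anti-HA fluorescence to track expression and on streptavidin fluorescence to track reagent binding. A clone's polyreactivity label is taken from the gate it came out of. The reagent was 10% biotinylated, detergent-solubilized Sf9 membrane, applied for 1 hour at 4 °C to galactose-induced yeast display cells.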
“QVQLVESGGGLVQAGGSLRLSCAASGGTFTYSPMGWDREATGTERELVAAITDGGSTYYAVSVKGRFTISRDNAKTTFYLQMNSLKPEDTAVYYCAVRVRHNSKNTFFPYSYGYWGQGTQVTVSS”: the “polyreactivity (PSR sort gate)” value is recorded as “low polyreactivity”. For “QVQLVESGGGLVQAGGSLRLSCAASGGTFVGNAMGWYRQAPGKERELVAAISTNSGSTYYADSVKGRFTISRDNAKNTVYLQMNSLKPEDPAVYYCATRNSSKRRGYYYWGQGTQVTVSS”, the “polyreactivity (PSR sort gate)” value is “high polyreactivity”. Take “QVQLVESGGGLVQAGGSLRLSCAASGGTFVHYTMGWYRPAPGKERELVASIRRGGSTNYADSVKGRFTISRDNAKNTVYLQMNSLKPEDTAVYYCAKRVQHYRYYYWGQGSQVTVSS”: the “polyreactivity (PSR sort gate)” value was “low polyreactivity”. On to “QVQLVESGGGLVQAGGSLRLSCAASGGTFVVYAMGWYRQAPGKERELVAAITWIGDSTYYADSVKGRFTISRDNAKNTVYLQMNSLKPEDTAVHYCNAEGWYYLTEYGYWGQGTQVTVSS”, for which the “polyreactivity (PSR sort gate)” value is recorded as “low polyreactivity”. To “QVQLVESGGGLVQAGGSLRLSCAASGGTFWAYTMGWYRQAPGKERELVATISFGTGNTYYADSVKGRFTISRDNAKNTVYLQMNSLKPEDTAVYYCAAQWPELTRSYVTVEVEYWGQGTQVTVSS” belongs “low polyreactivity”; to “QVQLVESGGGLVQAGGSLRLSCAASGGTFWTNAMGWYRQAPGKERELVARITSGGGTNYADSVKGRFTISRDNAKNTVYVQMNSRKPEDTAVYYCAAETIYYPVAQSYYSFEYWGQGTQVTVSS”, “low polyreactivity”. Under “QVQLVESGGGLVQAGGSLRLSCAASGGTFWVYAMGWYRQAPGKERELVAAIRWRGGRTYYADSVKGRFTISRDNAKNTVYLQMNSLKPEDTAVYYCAATTWRSGRYNYWGQGTQVTVSA” stands “high polyreactivity”; under “QVQLVESGGGLVQAGGSLRLSCAASGGTFWVYAMGWYRQAPGKERELVAAIRWRGGRTYYADSVKGRFTISRDNAKNTVYLQMNSLKPEDTEVYYCAATTWRSGRYNYWGQGTQVTVSS”, “high polyreactivity”; under “QVQLVESGGGLVQAGGSLRLSCAASGGTFWWYTMGWYRQAPGKERELVATITRGGSTNYADSVKGRFTISRDNAKNTVYLQMNSLKPEDTAVYYCAKRYRPYYSTYDYWGQGTQVTVSS”, “high polyreactivity”.

For the sequence “QVQLVESGGGLVQAGGSLRLSCAASGGTFYRYAMGWYRQAPGIERELVAAISGGRGRTYYADSVKGRFTISRDNAKNTVYLQMNSLKPVDTAVYYCSNKPYGAVSGSDYDYWGQGTQVTVSS”, the “polyreactivity (PSR sort gate)” value is “high polyreactivity”.

As to “QVQLVESGGGLVQAGGSLRLSCAASGGTFYSYAMGWYRQAPGKEREFVAAITYGGGSTYYADSEKGRFTISRDNAKNSVYLQKNSLKPEDTAVYYCNARRYGSRLGERYYYWGQGTQVTVSS”, the “polyreactivity (PSR sort gate)” value is “high polyreactivity”.

As for “QVQLVESGGGLVQAGGSLRLSCAASGGTIISYAMGWYRQAPRKERELVAAISRGGSSTYYADSVKGRFTISRDNAKNTVYLQMNSLKPEDTAVYYCVQLTRSGPDLDSWGQGTQVTVSS”, the “polyreactivity (PSR sort gate)” value is recorded as “high polyreactivity”.

In the case of “QVQLVESGGGLVQAGGSLRLSCAASGGTIVWNAMGWNRQAPGKEREFVAAITSSGGSTYYADSVKGRFTISRDNAKNSVYLQMNSLKPEDTAVYYCNVDTHSSYEFNSWGQGTQVTVSS”, the “polyreactivity (PSR sort gate)” value is “low polyreactivity”. Consider “QVQLVESGGGLVQAGGSLRLSCAASGGTIYRNAMGWYRQAPGKEREMVASITRGGSTTYADSVKGRFTISRDNAKNTVYLQMNCLKPEATAVYYCNAPGQQRYDSWGQGTQVTVSS”, for which the “polyreactivity (PSR sort gate)” value is reported as “high polyreactivity”. As for “QVQLVESGGGLVQAGGSLRLSCAASGGTLFTNAMGWYRQAPGKERELVAAISWRGGRTYYADSVKGRFTISRDNAKNTVYLQMNSLKAEDTAVYYCAAASAAGYDYWGQGTQVTVSS”, the “polyreactivity (PSR sort gate)” value is “low polyreactivity”. To “QVQLVESGGGLVQAGGSLRLSCAASGGTLRGYAMGWYRQAPGKERELVAAISKRSGSTYYADSVKGRFTISRDNAKNTVYLQMNSLKPEDTAVYYCNTRGLTTEGHYYWGQGTQVTVSS” belongs “high polyreactivity”; to “QVQLVESGGGLVQAGGSLRLSCAASGGTLRYYAMGGYRQAPGKERELVAVITSSAGRTYYADSVKGRFTISRDNAKNTVYLQMNSLKPEDTAVYYCPAYDAYSPYQALYDYWGQGTQVTVSS”, “low polyreactivity”; to “QVQLVESGGGLVQAGGSLRLSCAASGGTLYRNVMGWYRQAPGKERELVAAISKSGGSTYYADSVKGRFTISRDNAKNTFYLQMNSLKPEDTAVYYCDVSHNRGYDSWGQGTQVTVSS”, “high polyreactivity”.

For the sequence “QVQLVESGGGLVQAGGSLRLSCAASGGTLYRYAMGWYRQAPGKERELVAGISSSGGRTYNADSVKGRFTISRDNAKNTVYLQMNSLIPEDTAVYYCAKYWVSSYDYWGQGTQVTVSS”, the “polyreactivity (PSR sort gate)” value was “high polyreactivity”. With “QVQLVESGGGLVQAGGSLRLSCAASGGTSAVYAMGWYRQAPGKERELVAAISSDGSTNYADSVKGRFTISRDNAKNTVYLQMNSLKPEDTAVYYCAVDFSTYEWSGHITRASGSYDYWGQGTQVTVSS”, the “polyreactivity (PSR sort gate)” value is given as “low polyreactivity”. Under “QVQLVESGGGLVQAGGSLRLSCAASGHIFFYYTMGWYRQAPGKERELVAGITIGGSTNYADSVKGRFTISRDNAKNTVYLKMNSLKPEDTAVYYCNVVKYVYIYSYWEYYYWGQGTQVTVSS” stands “low polyreactivity”. Under “QVQLVESGGGLVQAGGSLRLSCAASGHIFLHNAMGWYRQAPGKERELVAGITYSDTSTYADSVKGRFTISRDNAKNTVYLQMNSLKPEDTAVYYCEYYYWGQGTQVTVSS” stands “low polyreactivity”; under “QVQLVESGGGLVQAGGSLRLSCAASGHTFSISAMGWYRQAPGKERELVAAISLSGGSTDYADSVKGRFTISRDNAKNTVYLQMNSLKPEDTAVYYCAADVFTARRSYDYGGQGTQVTVSS”, “low polyreactivity”. To “QVQLVESGGGLVQAGGSLRLSCAASGIFLGYAMGWYRQAPGKERELVAAITSGDSTYYADSVKGRLTISRDNAKNTVYLQMNSLKPEDTAVYYCAKTRYSWPRVWYNYWGQGTQVTVSS” belongs “low polyreactivity”. In the case of “QVQLVESGGGLVQAGGSLRLSCAASGIFRQNAMGWYRQAPGKERELVAGISQSGGSTYYADSVKGRFTISRDNAKNTVYLQMNSLKPEDTAVYYCAGVSIWGYDYWGQGTQVTVSS”, the “polyreactivity (PSR sort gate)” value is reported as “low polyreactivity”. To “QVQLVESGGGLVQAGGSLRLSCAASGIFRRYAMGWYRQAPGKERELVAAISYSGGSTEYADSVKGRFTISRDNAKNTVYLQMNSLKPEDTAVYYCAAVNRPRPRRSDYWGQGTQVTVSS” belongs “high polyreactivity”; to “QVQLVESGGGLVQAGGSLRLSCAASGIFTNNAMGWYRQAPGKERELVAAITIRGGSTYYADSVKGRFTISRDNAKNTVYLQMNSLKPEDTAVYYCAARGLGYTDLRSVHMYYWGQGTQVTVSS”, “high polyreactivity”; to “QVQLVESGGGLVQAGGSLRLSCAASGIFTYTMGWYRQAPGKERELVAAITNGSTYYADSVKGRFTISRDNAKNTVYLQMNSLKPEDTAVYYCAADRSSAYRWRSAGYYKYDYWGQGTQVTVSS”, “low polyreactivity”. As for “QVQLVESGGGLVQAGGSLRLSCAASGIFVSDAMGWYSQAPGKVRELVAAIRYSGDSTYYADSVKGRFTISRDNAKNTVYLQMNSLKPEDTAVYYCAATKGWTRYEYWGQGTQVTVSS”, the “polyreactivity (PSR sort gate)” value is recorded as “low polyreactivity”. Under “QVQLVESGGGLVQAGGSLRLSCAASGIFVSYAMGWYRQAPGKERELVAAISWNGGSTYYADSVKGRFTISRDNAKNTVYLQMNSLKPEDTAVYDCAARAYFSYRGYVTDYDYWGQGTQVTVSS” stands “high polyreactivity”. Regarding “QVQLVESGGGLVQAGGSLRLSCAASGIFVYYAMGWYRQSPGKERELVAAISSSGGSTYYADSVKGRFTISRDNAKNTVYLQMNSLKREDTAVYYCNTLAYPSDRFEYWGQGTQVTVSS”, the “polyreactivity (PSR sort gate)” value is reported as “high polyreactivity”. For the sequence “QVQLVESGGGLVQAGGSLRLSCAASGIIFAHYAMGWYRQAPGKERELVAAISRGGSSTYYADSVKGRFTISRDNAKNTVYLQMNSLKPEDTAVDYCAAYGPKVIGPKTSYSSSRYDYWGQGTQVTVSS”, the “polyreactivity (PSR sort gate)” value is “high polyreactivity”. To “QVQLVESGGGLVQAGGSLRLSCAASGIIFAPYAMGWYRHPPGKERELVAAITDSGGSTYYADSVKGRFTISRDNSKNTVYLQMKSLKPEDTAVYYCAVDSNPPDWWAVIYGYWGQGTQVTVSS” belongs “low polyreactivity”; to “QVQLVESGGGLVQAGGSLRLSCAASGIIFARNAMGWYRQAPGKERELVAAISSRSGSTYYADSVKGRFTISRDNAKNTVYVQMNSLKPEDTAVYYCNAVYAGRFGSHYWGQGTQVTVSS”, “high polyreactivity”; to “QVQLVESGGGLVQAGGSLRLSCAASGIIFARYAMGWYRQAPGKERELVASINWTGGNTYADSVKGRFTISRDNAKNTVYLQMNSLKPEDTAVYYCARDFSPGSSDPKASISFDHWGQGTQVTVSS”, “low polyreactivity”.

With “QVQLVESGGGLVQAGGSLRLSCAASGIIFASNGMGWSRQPPGKERELVAAISSGGSTNYADSVKGRFTISRDNAKNTVYLQMNSLKPEDTAVYYCAAVRWYREYDYWGQGTQVTVSS”, the “polyreactivity (PSR sort gate)” value is “low polyreactivity”.

With “QVQLVESGGGLVQAGGSLRLSCAASGIIFATYAMGWYRQAPGKERELVASISTGDSTNYADSVKGRFTISRDNAKNTVYLQMNSLKPEDTAVDYCNADSYPYYVYGSNDYWGQGTQVTVSS”, the “polyreactivity (PSR sort gate)” value is listed as “low polyreactivity”. As for “QVQLVESGGGLVQAGGSLRLSCAASGIIFATYAMGWYRQAPGKERELVASISTGDSTNYADSVKGRFTISRDNAKTTVYLQMNSLKPEDTAVYYCNADSYPYYVYGSNDYWGQGTQVTVSS”, the “polyreactivity (PSR sort gate)” value is on record as “low polyreactivity”.

For the sequence “QVQLVESGGGLVQAGGSLRLSCAASGIIFAYNAMGWYRQAPGKERELVATITDSGGSTSYADSVKGRFTISRDNAKNTVYLQMNSLKPEDTAVYYCAVLPVYWYWRNYVYLSGYDYWGQVTQVTVSS”, the “polyreactivity (PSR sort gate)” value is “low polyreactivity”.

For the sequence “QVQLVESGGGLVQAGGSLRLSCAASGIIFAYYALGWYRQAPGKERELVAGITQSGGDTYYADSVKGRFTISRDNAKNTVYLQLNSLKPEDTAVYYCAAGWWGYDYWGQGTQVTVSS”, the “polyreactivity (PSR sort gate)” value is recorded as “high polyreactivity”. To “QVQLVESGGGLVQAGGSLRLSCAASGIIFAYYAMGWYRQAPGKERELVAAIDYSGASTYYADSVKGRFTISRDNAKNTVYLQMNSLKPEDTAVYYCAKYQYDYYTYDYWGQGTQVTVSS” belongs “low polyreactivity”.
